The results in this text go back to patent publication US20250108100A1, “C-TERMINAL FRAGMENT OF APOLIPOPROTEIN E AND APPLICATION THEREOF IN INHIBITING y-SECRETASE ACTIVITY” (SYNPHATEC (SHANGHAI) BIOPHARMACEUTICAL TECHNOLOGY CO., LTD., priority 2022, published 2025).

“Also recorded” adds a separate entry of the source.

The subject of one data set is 5×FAD mice. The data set is described as follows: Distribution of neuronally expressed ApoE around amyloid plaques in 5×FAD mice (immunofluorescence). Type of data set: in vivo, mouse. As to the method: Mice were anesthetized with isoflurane and perfused with 4% PFA. Dissected mouse brains were fixed overnight in 4% PFA and cryoprotected overnight in 30% sucrose. A cryostat (Leica CM3050S) was used to obtain frozen brain slices ([…]) from fixed and cryoprotected mouse brains. Floating slices were washed 3 times with 1×PBS and then permeabilized with 0.5% Triton-X in 1×PBS for 30 minutes. After blocking with 5% BSA in 1×PBS at room temperature for 1 h, the slices were incubated overnight at 4° C. in 5% BSA (in 1×PBS) buffer comprising the primary antibody. Slices were washed 3 times with 1×PBS and incubated with secondary antibody diluted in 5% BSA (1×PBS) buffer for 1 hour at room temperature. Samples were then washed 3 times with 1×PBS and mounted with Prolong Gold Antifade Mountant (Life Technology).
After being deeply anesthetized with isoflurane, mice (5 weeks old) were placed in a stereotaxic apparatus (RWD Instruments). The zero point (x, y, z, 0, 0, 0) is Bregma. Lentivirus (lentivirus-GFP, lentivirus-ApoE and lentivirus-ApoE-IRES-GFP) and AAV (AAV2/9-hSyn-EGFP-WPRE-pA and AAV2/9-hSyn-ApoECT; purchased from Shanghai Taitool Bioscience Co. Ltd.) were injected into the cortex (x, y, z, +/−1.6, 0, −1) or hippocampus (x, y, z, +/−1.5, −2, −1.5), injected 1 ul on each injection site. The mice were then returned to their cages for rehabilitation after surgery.

The test system of data set [1] is ADAM10, BACE1, PS1 and PS2. The data set is described as follows: mRNA (qRT-PCR) and protein (Western blot) expression of APP secretases in HEK 293T cells. In kind it is cell-based, human. On the procedure:
• a) A plasmid expressing the target protein in mammalian cells was constructed, and the protein expression promoter is CAG. • b) The target protein was expressed in HEK 293T cell line. Cells were subcultured one day before transfection, and transfection was performed when the degree of cell adhesion reached 70%-80%. The transfection reagent was lipofectamine2000 (ThermoFisher). • c) 4-6 hours post transfection, the medium were replaced with fresh cell culture medium. • d) 36-48 hours post transfection, the cells were lysed (10% 1M tris-HCl (pH=6.8), 4% SDS, 20% glycerol, 0.01% bromophenol blue), and the protein samples were collected and used for Western blot or stored in a −80° C. freezer. • e) Polyacrylamide gel electrophoresis. Before protein loading, the protein was boiled at 98° C. for 10 min, and then centrifuged at 12000 rpm for 10 min. Electrophoresis: 80V for the upper stacking gel; 120V for the lower separating gel. • f) Protein transfer. The filter paper was soaked in the electrophoresis solution before use, and the PVDF membrane was put in methanol for 10s to activate, and the gel after electrophoresis was taken out from the electrophoresis tank, put in the order of filter paper—PVD membrane—gel-filter paper from bottom to top, and they were put into the transfer instrument, with transferring in constant current at 0.1 A for 70 min. • g) Blocking and antibody incubation: the transferred PVDF membrane was placed in 5% BSA/TBST blocking solution, and blocked on a shaker at room temperature for 1 hour. The primary antibody was used to incubate at 4° C. overnight on a shaker (12-16 h); 1×TBST was used to wash three times, once every 10 minutes; the secondary antibody was used to incubate, shaked at room temperature for 1-2 h; 1×TBST was used to wash three times, once every 10 minutes. • h) Imaging by development: development was performed with ECL chemiluminescence hypersensitive chromogenic reagent. […]
Quantitect SYBR-Green qRT-PCR kit from Qiagen was used to quantitatively analyze the relative content of mRNA. qRT-PCR primers were listed in Table 2. […]
On the technique in general: Quantitative PCR measures a nucleic acid by following its amplification.

Data set [2] has as its system human APP co-expressed in HEK 293T cells. The data set is described as follows: α-CTF produced by APP co-expressed in HEK 293T cells (Western blot). The note with it: for α-CTF produced by co-expressed APP: Western blot. In kind it is cell-based. On the procedure:
• a) A plasmid expressing the target protein in mammalian cells was constructed, and the protein expression promoter is CAG. • b) The target protein was expressed in HEK 293T cell line. Cells were subcultured one day before transfection, and transfection was performed when the degree of cell adhesion reached 70%-80%. The transfection reagent was lipofectamine2000 (ThermoFisher). • c) 4-6 hours post transfection, the medium were replaced with fresh cell culture medium. • d) 36-48 hours post transfection, the cells were lysed (10% 1M tris-HCl (pH=6.8), 4% SDS, 20% glycerol, 0.01% bromophenol blue), and the protein samples were collected and used for Western blot or stored in a −80° C. freezer. • e) Polyacrylamide gel electrophoresis. Before protein loading, the protein was boiled at 98° C. for 10 min, and then centrifuged at 12000 rpm for 10 min. Electrophoresis: 80V for the upper stacking gel; 120V for the lower separating gel. • f) Protein transfer. The filter paper was soaked in the electrophoresis solution before use, and the PVDF membrane was put in methanol for 10s to activate, and the gel after electrophoresis was taken out from the electrophoresis tank, put in the order of filter paper—PVD membrane—gel-filter paper from bottom to top, and they were put into the transfer instrument, with transferring in constant current at 0.1 A for 70 min. • g) Blocking and antibody incubation: the transferred PVDF membrane was placed in 5% BSA/TBST blocking solution, and blocked on a shaker at room temperature for 1 hour. The primary antibody was used to incubate at 4° C. overnight on a shaker (12-16 h); 1×TBST was used to wash three times, once every 10 minutes; the secondary antibody was used to incubate, shaked at room temperature for 1-2 h; 1×TBST was used to wash three times, once every 10 minutes. • h) Imaging by development: development was performed with ECL chemiluminescence hypersensitive chromogenic reagent.
Plasmids were transfected in HEK 293T or N2A cells for 36-48 hours and then lysed in cell lysis buffer [10% 1M tris-HCl (pH=6.8), 4% SDS, 20% glycerol, 0.01% bromophenol blue]. Lysates were shaken at room temperature for 10 min, then boiled for 10 min, and centrifuged at 12,000×g for 10 min. Proteins were run on 8% or 12% Tris-glycine SDS-PAGE and transferred to PVDF membranes (Life Technologies). Samples were incubated overnight at 4° C. with primary antibody diluted in 5% BSA buffer (in 1×TBST). After washing 3 times with 1×TBST, they were incubated with secondary antibody diluted in 5% BSA buffer (in 1×TBST) for 2 hours at room temperature. Finally, after washing 3 times with 1×TBST, the signal was detected by ECL Western blotting substrate (Solarbio, PE0010).
Data were analyzed by GraphPad Prism software (v6) using unpaired, paired, or one-sample t-tests. Aβ40 and Aβ42 levels were normalized to the corresponding GFP controls. α-CTF levels were normalized to FL-APP and corresponding GFP controls. All data are represented as mean±SEM. Statistical significance was defined as p<0.05. One, two, three and four stars (*) in the graph indicate p-values <0.05, <0.01, <0.001 and <0.0001, respectively.

B1: ApoE CT: C-terminal fragment of ApoE, positions 216-299 of SEQ ID NO: 12; SEQ ID NO: 33 (protein)
chain: ARMEEMGSRTRDRLDEVKEQVAEVRAKLEEQAQQIRLQAEAFQARLKSWFEPLVEDMQRQWAGLVEKVQAAVGTSAAPVPSDNH
Turning to B1, the “migration to and accumulation around amyloid plaques” value in the data set on 5×FAD mice (AAV expression in cortex, DG and CA3 neurons) was “migrated to the subiculum and accumulated in amyloid plaques”. Moreover, the “accumulation around amyloid plaques” value in the data set on 5×FAD mice (lentiviral vectors) is “a similar distribution pattern was detected around amyloid plaques”. Further, in data set [1] (Western blot), the “protein expression of APP metabolizing enzymes” value was “does not affect the protein expression”. The “mRNA expression of APP metabolizing enzymes” value in data set [1] (qRT-PCR) was “does not affect the mRNA expression”. The “mRNA and protein expression of ADAM10, BACE1, PS1 and PS2” value in data set [1] (qRT-PCR and Western blot, vs GFP control) was “does not change the mRNA and protein expression; also recorded: not altered”. In addition, in data set [2], the “level of α-CTF compared with ApoE2” value is “significantly increases the level of α-CTF”. In addition, the “increase of α-CTF in the presence of GI254023X” value in data set [2] (1 μM ADAM10 inhibitor GI254023X) is on record as “approximately 4 fold”. Further, the “α-CTF in the presence of PF03084014” value in data set [2] (1 μM γ-secretase inhibitor PF03084014) is reported as “failed to further increase α-CTF”. In addition, in data set [2] (5 μM AZD3839), the “α-CTF when β-secretase inhibited by AZD3839” value is recorded as “still increases α-CTF”. Also, in data set [2] (APP and PS1 co-expressed, PF03084014 at 1 μM), the “α-CTF produced by APP co-expressed with PS1” value is “significantly increases α-CTF; also recorded: can increase the production of α-CTF”. The “γ-cleavage of APP (α-CTF) when co-expressed with γ-secretase” value in data set [2] (APP, γ-secretase and ApoE CT co-expressed) is on record as “still inhibited γ-cleavage of APP”. Besides, in data set [2] (vs GFP control), the “α-CTF produced by co-expressed APP” value is listed as “significantly increased α-CTF; also recorded: increased the α-CTF”, the “increase in α-CTF levels” value was “more than 6 fold” and the α-CTF level result is “more than 5 times the original level”. Besides, in data set [2] (vs GFP control, listed as human ApoE CT), the “α-CTF produced by co-expressed APP” value is “also increase α-CTF”.
